Laboratory results taken from patent publication US20240076396A1 (Regeneron, published 2024).

What was measured:
[1] = biological target: T1, human GITR expressed on the cell surface (human, UniProt Q9Y5U5 26-241); test: cell-based or functional assay
T1 sequence: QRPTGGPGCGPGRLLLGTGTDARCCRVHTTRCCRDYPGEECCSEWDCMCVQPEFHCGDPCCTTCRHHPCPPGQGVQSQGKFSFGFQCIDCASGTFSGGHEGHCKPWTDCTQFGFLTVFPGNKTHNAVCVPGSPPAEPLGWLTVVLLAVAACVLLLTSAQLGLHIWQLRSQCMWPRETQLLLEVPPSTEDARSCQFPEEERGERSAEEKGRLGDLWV

[2] = biological target: T2, cynomolgus monkey GITR expressed on the cell surface (Macaca fascicularis (cynomolgus monkey)); test: cell-based or functional assay
[3] = biological target: T1, human GITR expressed on the cell surface; test: flow cytometry on Jurkat/hCD20/hGITR cells
Description: (§1) FIG. 5A, FIG. 5B, and FIG. 5C depict cell-surface binding of mAb1 and IgG1 isotype control at a range of concentrations (18 pM to 300 nM) on Jurkat/hCD20 (FIG. 5A), Jurkat/hCD20/hGITR (FIG. 5B), and Jurkat/hCD20/MfGITR (FIG. 5C) cells. Binding was detected using an Alexa647-labeled anti-human IgG by flow cytometry. Fluorescence intensity was plotted as geometric MFI. h, Human; Mf, Macaca fascicularis (cynomolgus monkey).
(§2) Flow cytometry was used to evaluate mAb1 binding to Jurkat/hCD20/hGITR cells and Jurkat/hCD20/MfGITR cells. Jurkat/hCD20 cells were used as a negative control cell line for GITR binding. Cells were added to a 96-well V-bottom plate (2×10⁵ to 4×10⁵ cells/well) and incubated in Fc block solution, followed by successive incubation on ice with primary antibody (mAb1 or IgG1 isotype control) at final concentrations ranging from 18 pM to 300 nM and a secondary antibody (AF647-conjugated anti-human IgG) at 5 μg/mL. […] Data were analyzed with Flow.lo software. For EC₅₀ (effective concentration at 50% activity) determinations, measured geometric MFI values were analyzed using a 4-parameter logistic equation over a 9-point response curve with GraphPad Prism. The fold binding was determined by taking the ratio of the highest MFI on the curve to the MFI of the wells containing secondary antibody only.

[4] = biological target: T2, cynomolgus monkey GITR expressed on the …; test: flow cytometry on Jurkat/hCD20/MfGITR cells
Description: as §1, §2

[5] = biological target: T3, hGITR.mFc (dimeric recombinant human GITR ectodomain protein, mouse Fc fusion) (human); test: SPR Biacore T-200; purified antibody captured on anti-human Fc; 5 nM hGITR.mFc
T3 construct: also called dimeric human GITR; dimeric GITR
T3 chain: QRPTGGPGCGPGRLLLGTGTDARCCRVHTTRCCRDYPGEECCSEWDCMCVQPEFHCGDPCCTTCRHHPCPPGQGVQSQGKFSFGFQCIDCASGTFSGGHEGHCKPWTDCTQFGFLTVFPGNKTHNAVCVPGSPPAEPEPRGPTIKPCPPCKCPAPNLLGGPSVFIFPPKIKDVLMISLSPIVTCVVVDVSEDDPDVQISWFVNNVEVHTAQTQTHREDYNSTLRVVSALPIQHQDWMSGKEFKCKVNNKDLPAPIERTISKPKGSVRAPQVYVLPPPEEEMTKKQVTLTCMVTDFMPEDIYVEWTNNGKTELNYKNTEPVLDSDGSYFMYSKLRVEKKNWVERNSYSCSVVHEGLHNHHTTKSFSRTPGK
Description: For purified antibodies, Biacore experiments were performed as follows. Using a Biacore T-200 instrument, antibodies were captured for 30 seconds at a flow rate of 8 uL/min on a CM5 anti-humanFc-coupled surface. Approximately 120 RU of each antibody were captured. 10 nM hGITR.mmH (soluble monomeric hGITR, SEQ ID NO: 45) or 5 nM hGITR.mFc (dimeric Macaca fasicularis GITR, SEQ ID NO: 46) were injected over this surface for 5 minutes at a flow rate of 50 uL/min. Dissociation was measured for 10 min. The KD and t_{1/2} were calculated by fitting the double-referenced sensorgrams to a 1:1 binding model.

[6] = biological target: T1, human GITR expressed on the cell surface; test: flow cytometry on Jurkat/hCD20/hGITR cells; max MFI over secondary antibody alone
Description: as §2, with “μg/mL. Cells were then stained with LIVE/DEAD Fixable Green Dead Cell Stain according to the manufacturer's instructions.” for “μg/mL.”
(§3) ^a The maximum MFI was the highest mean MFI value within the concentration range tested (18 pM to 300 nM). ^b Fold binding was calculated as the maximum MFI above background (secondary antibody alone). h, Human; Mf, Macaca fascicularis (cynomolgus monkey); ND, Not determined because concentration-dependent binding was not observed

[7] = biological target: T2, cynomolgus monkey GITR expressed on the …; test: flow cytometry on Jurkat/hCD20/MfGITR cells; max MFI over secondary antibody alone
Description: as §2, with “μg/mL. Cells were then stained with LIVE/DEAD Fixable Green Dead Cell Stain according to the manufacturer's instructions.” for “μg/mL.”
as §3

[8] = biological target: T3, hGITR.mFc (dimeric recombinant human …); test: SPR Biacore 2000 25C; CHOt supernatant antibody captured on anti-human Fc; 50 nM hGITR.mFc
Description: (§4) Biacore experiments for antibodies secreted in conditioned culture medium were performed as follows. Using a Biacore 2000 instrument at 25° C., antibodies were captured for 80 seconds at a flow rate of 8 uL/min on a CM5 anti-humanFc-coupled surface. Approximately 1000-2000 RU of each antibody were captured. 100 nM hGITR.mmH (soluble monomeric hGITR, SEQ ID NO: 45) or 50 nM hGITR.mFc (dimeric Macaca fasicularis GITR, SEQ ID NO: 46) were injected over this surface for 2 minutes at a flow rate of 50 uL/min. Dissociation was measured for 2 minutes. The KD and t_{1/2} were calculated by fitting the double-referenced sensorgrams to a 1:1 binding model.

[9] = biological target: T4, hGITR.mmH (soluble monomeric recombinant human GITR ectodomain protein) (human); test: SPR Biacore 2000 25C; CHOt supernatant antibody captured on anti-human Fc; 100 nM hGITR.mmH
T4 construct: also called monomeric human GITR
T4 chain: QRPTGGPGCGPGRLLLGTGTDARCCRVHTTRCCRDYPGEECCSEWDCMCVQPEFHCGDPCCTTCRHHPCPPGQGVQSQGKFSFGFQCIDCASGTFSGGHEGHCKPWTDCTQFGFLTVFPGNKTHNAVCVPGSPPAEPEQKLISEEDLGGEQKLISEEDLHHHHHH
Description: as §4

B1: mAb1 (antibody, human IgG1, kappa, V domains shown)
VH: QVQLQESGPGLVKPSETLSLTCIVSGGSISGYFWNWIRQPPGKGLEWIGYIYYSGTTIYNPSLKSRFTISLDTSKNQFSLKLTSVTAADTAVYYCARESYDPSPRYFDHWGQGTLVTVSS
VL: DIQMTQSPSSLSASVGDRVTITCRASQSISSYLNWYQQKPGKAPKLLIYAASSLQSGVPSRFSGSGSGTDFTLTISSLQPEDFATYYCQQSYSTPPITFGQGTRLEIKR
notes: Human IgG1; N101D variant of CompAb1; also called N101D Variant; N101D
Question: Which “Fold Change in Activity, ADCP of Jurkat/hCD20/hGITR” value [1] does the source give for B1 here?
Answer: 5.92 fold

Question: And the “EC50, ADCP of Jurkat/hCD20/MfGITR” value [2]?
Answer: 0.51 nM

Question: And the “Fold Change in Activity, ADCP of Jurkat/hCD20/MfGITR” value [2]?
Answer: 6.98 fold

Question: What about the EC50 [3] of the same binder?
Answer: 1.96 nM

Question: And the EC50 [4]?
Answer: 3.52 nM

Question: What about the Kd [5] of the same binder?
Answer: 0.104 nM

Question: And the t1/2 [5]?
Answer: 1.2 h

Question: What about the “Fold Binding” value [6] of the same binder?
Answer: 290 fold

Question: What about the “Fold Binding” value [7] of the same binder?
Answer: 277 fold

Question: And the Kd [8]?
Answer: 0.0813 nM

Question: What about the t1/2 [8] of the same binder?
Answer: 5.75 h

Question: What about the Kd [9] of the same binder?
Answer: 14.8 nM

Question: What about the t1/2 [9] of the same binder?
Answer: 7.52 min
